This note sets out measurements from US20090191571A1.

For one test, the target named is T1, PrP^Sc (pathogenic mouse prion protein, RML, in infected Balb-c mouse brain homogenate) (mouse), P04925.
Turning to GGGKKRPAPGG (modifications not checked) [Peptide reagent SEQ ID NO:107], the ELISA A405nm amounted to 0.578 A405nm.

GGGKKAPKPGG (modifications not checked) [Peptide reagent SEQ ID NO:106] registered an ELISA A405nm of 0.268 A405nm.

GGGKARPKPGG (modifications not checked) [Peptide reagent SEQ ID NO:105]: the ELISA A405nm amounted to 0.256 A405nm.

In turn, GGGAKRPKPGG (modifications not checked) [Peptide reagent SEQ ID NO:104] gave an ELISA A405nm of 0.273 A405nm.

A further test addresses T1, PrP^Sc (pathogenic mouse prion protein, …). The source holds these as a separate data set.
GGWGQGGGTHNQWNKPSKPKTN (modifications not checked) [Peptide reagent SEQ ID NO:53] had an ELISA A405nm of 0.254 A405nm.

In turn, GGGGPKRKGPK (modifications not checked) [Peptide reagent SEQ ID NO:73] returned an ELISA A405nm of 1.06 A405nm.

The molecule GGGKKKKKKKK (modifications not checked) [Peptide reagent SEQ ID NO:85] came in with an ELISA A405nm of 0.53 A405nm.

In turn, GGTHNQWNKPSKPKTN (modifications not checked) [Peptide reagent SEQ ID NO:54] displayed an ELISA A405nm of 0.253 A405nm.

GGGKPSKPK (modifications not checked) [Peptide reagent SEQ ID NO:80] came in with an ELISA A405nm of 0.225 A405nm.

As for KKKAGAAAAGAVVGGLGG (modifications not checked) [Peptide reagent SEQ ID NO:65], the ELISA A405nm came out at 0.635 A405nm.

GGGKKRAKAGG (modifications not checked) [Peptide reagent SEQ ID NO:98] had an ELISA A405nm of 1.46 A405nm.

The molecule GGGAGAAAAGAVVGGLGG (modifications not checked) [Peptide reagent SEQ ID NO:56] showed an ELISA A405nm of 0.313 A405nm.

In turn, GGGKKRPKPGGGKKRPKPGG (modifications not checked) [Peptide reagent SEQ ID NO:72] displayed an ELISA A405nm of 0.522 A405nm.

For GGGNKPSKPK (modifications not checked) [Peptide reagent SEQ ID NO:79], the ELISA A405nm is 0.24 A405nm.

Consider PHGGGWGQ (modifications not checked) [Peptide reagent SEQ ID NO:71], for which the ELISA A405nm was found to be 0.263 A405nm.
